The values that follow come from patent publication US20180193456A1 (HENLIUS BIOTECH, published 2018).

One assay deals with T1, VEGFR2-Fc (UniProt P35968 20-764, limits assumed).
T1 construct: also called biotinylated VEGFR2-Fc; not shown: Fc
Description: ELISA, VEGFR2-Fc coated, anti-human kappa-HRP, OD450.

Assay [1] addresses T2, VEGFR2-D5-7-AP fusion protein (UniProt P35968 421-764).
T2 construct: domain: domains 5-7; also called domains 5-7 of VEGFR2; not shown: alkaline phosphatase (AP) fusion partner
Description: ELISA: antibody captured with sheep anti-human Fd, VEGFR2-D5-7-AP added, pNPP, A405. (In an ELISA, binding on a coated surface is turned into a signal by an enzyme label.)

Assay [2] addresses T3, VEGFR2-AP (UniProt P35968 20-764).
T3 construct: also called AP-conjugated VEGFR2; AP-conjugated VEGFR; not shown: alkaline phosphatase (AP)
Description: ELISA, antibody captured with anti-Fd, VEGFR2-AP added (axis printed OD450).

A further assay has as its target T4, VEGFR2 (UniProt P35968 20-764, limits assumed).
T4 construct: The SPR paragraphs name neither antigen construct nor format
Kind of assay: SPR; antigen construct and format not stated.

The target in assay [3] is T3, VEGFR2-AP. Kind of assay: competition ELISA: antibody pre-incubated with VEGFR2-AP, mixture added to VEGF-coated wells, A405; blocked ligand: VEGF.
Description: Each antibody:antigen mixture was added to VEGF-coated wells of a microtiter dish. Following an incubation and wash, pNPP was added to the wells and incubated for 30 minutes. AP activity was measured by monitoring the increase in absorbance at 405 nm.
The target of the next assay is T5, Mouse VEGFR2-Fc (mouse, UniProt P35918 20-762, limits assumed).
T5 construct: not shown: Fc
T5 sequence (P35918 20-762 limits assumed): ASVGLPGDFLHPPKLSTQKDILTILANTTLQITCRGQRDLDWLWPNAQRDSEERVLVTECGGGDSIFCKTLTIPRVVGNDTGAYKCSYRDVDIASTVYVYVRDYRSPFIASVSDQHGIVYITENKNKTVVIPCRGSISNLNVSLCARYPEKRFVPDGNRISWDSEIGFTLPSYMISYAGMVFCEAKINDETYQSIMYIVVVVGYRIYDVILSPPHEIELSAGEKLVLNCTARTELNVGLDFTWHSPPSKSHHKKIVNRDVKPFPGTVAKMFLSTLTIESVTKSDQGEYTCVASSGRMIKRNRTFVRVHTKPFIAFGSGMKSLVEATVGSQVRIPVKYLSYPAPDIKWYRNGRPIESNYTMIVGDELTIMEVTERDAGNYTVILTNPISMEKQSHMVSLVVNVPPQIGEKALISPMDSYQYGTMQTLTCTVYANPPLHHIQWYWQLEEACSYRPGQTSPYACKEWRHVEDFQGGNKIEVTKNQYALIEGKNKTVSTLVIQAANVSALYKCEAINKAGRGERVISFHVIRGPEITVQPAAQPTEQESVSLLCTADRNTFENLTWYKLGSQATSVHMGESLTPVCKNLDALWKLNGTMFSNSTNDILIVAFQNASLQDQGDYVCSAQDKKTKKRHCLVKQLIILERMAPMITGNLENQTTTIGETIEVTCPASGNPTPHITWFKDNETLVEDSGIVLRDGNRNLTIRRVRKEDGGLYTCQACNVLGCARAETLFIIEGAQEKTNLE
Kind of assay: ELISA, mouse VEGFR2-Fc coated, anti-human kappa-HRP, A450.

Assay [4] has as its target T3, VEGFR2-AP. Kind of assay: ELISA, antibody captured with anti-Fc, VEGFR2-AP added (axis printed OD450).
In assay [5] the target is T6, human VEGFR3-Fc (R&D Systems) (human, UniProt P35916 25-776).
T6 construct: Bought; not shown: Fc
T6 sequence (looked up): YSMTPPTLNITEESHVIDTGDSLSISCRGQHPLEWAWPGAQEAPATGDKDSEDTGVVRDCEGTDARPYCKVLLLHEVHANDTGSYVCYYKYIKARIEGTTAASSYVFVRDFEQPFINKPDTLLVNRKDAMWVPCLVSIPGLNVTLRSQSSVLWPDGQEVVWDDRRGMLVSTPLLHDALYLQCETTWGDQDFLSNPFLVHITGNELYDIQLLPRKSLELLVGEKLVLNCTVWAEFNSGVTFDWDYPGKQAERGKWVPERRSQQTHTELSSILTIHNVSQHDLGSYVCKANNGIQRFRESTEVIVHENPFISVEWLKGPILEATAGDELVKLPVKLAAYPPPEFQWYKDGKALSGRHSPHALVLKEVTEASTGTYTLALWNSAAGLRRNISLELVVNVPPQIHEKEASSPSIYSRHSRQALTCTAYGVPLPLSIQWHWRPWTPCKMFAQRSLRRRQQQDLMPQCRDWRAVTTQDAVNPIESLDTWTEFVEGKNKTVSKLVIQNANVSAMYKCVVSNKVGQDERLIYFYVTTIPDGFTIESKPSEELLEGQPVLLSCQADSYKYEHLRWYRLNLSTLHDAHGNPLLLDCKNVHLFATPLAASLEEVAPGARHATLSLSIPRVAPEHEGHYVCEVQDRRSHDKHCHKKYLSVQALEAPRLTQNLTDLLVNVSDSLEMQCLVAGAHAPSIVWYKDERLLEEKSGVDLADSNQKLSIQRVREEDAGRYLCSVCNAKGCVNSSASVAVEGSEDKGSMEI
Kind of assay: ELISA, human VEGFR3-Fc coated, goat anti-human F(ab)'2-HRP, OD450.

The target in assay [6] is T7, recombinant human VEGFR1-Fc fusion protein (R&D Systems) (human, UniProt P17948-2 27-687, limits assumed).
T7 construct: Bought; not shown: Fc
T7 sequence (P17948 other isoform, or with tags, fused parts or gaps limits assumed): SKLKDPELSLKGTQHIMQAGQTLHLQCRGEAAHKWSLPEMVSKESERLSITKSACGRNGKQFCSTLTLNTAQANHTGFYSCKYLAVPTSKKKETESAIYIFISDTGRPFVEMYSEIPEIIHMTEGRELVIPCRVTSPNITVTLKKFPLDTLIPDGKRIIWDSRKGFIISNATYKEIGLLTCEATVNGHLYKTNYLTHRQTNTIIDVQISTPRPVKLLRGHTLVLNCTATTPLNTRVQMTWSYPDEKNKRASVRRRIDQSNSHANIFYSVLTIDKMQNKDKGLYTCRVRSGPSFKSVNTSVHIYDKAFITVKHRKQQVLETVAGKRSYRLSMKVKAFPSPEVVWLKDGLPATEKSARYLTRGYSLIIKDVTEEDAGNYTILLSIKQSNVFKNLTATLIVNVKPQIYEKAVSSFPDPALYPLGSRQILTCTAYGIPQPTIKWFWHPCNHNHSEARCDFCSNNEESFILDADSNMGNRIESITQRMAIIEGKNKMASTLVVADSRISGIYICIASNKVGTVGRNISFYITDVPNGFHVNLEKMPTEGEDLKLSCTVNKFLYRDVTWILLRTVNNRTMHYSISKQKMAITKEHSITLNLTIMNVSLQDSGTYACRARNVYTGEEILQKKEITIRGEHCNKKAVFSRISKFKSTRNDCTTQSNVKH
Description: ELISA, human VEGFR1-Fc coated, goat anti-human F(ab)'2-HRP, OD450.

T3 sequence (P35968 20-764): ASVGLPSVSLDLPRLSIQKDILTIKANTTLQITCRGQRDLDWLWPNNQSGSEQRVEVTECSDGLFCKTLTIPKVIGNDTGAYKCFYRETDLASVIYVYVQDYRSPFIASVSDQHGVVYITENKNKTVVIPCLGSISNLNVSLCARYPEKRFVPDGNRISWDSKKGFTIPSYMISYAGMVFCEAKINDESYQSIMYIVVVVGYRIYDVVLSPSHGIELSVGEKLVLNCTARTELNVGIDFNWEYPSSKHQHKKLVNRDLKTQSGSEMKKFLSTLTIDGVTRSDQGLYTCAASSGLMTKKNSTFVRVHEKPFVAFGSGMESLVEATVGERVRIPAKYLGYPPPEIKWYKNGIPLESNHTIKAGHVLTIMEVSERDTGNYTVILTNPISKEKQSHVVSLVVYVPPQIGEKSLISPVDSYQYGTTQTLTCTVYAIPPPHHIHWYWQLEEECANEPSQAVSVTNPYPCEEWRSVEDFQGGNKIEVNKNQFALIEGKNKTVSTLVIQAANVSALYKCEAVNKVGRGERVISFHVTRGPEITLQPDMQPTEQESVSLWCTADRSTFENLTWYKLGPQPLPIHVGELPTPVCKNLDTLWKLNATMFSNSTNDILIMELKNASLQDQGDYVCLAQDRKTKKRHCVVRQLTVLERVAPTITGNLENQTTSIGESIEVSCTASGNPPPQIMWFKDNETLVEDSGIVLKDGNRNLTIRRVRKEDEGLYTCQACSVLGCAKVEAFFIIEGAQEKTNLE
T4 sequence (P35968 20-764 limits assumed): as the sequence (P35968 20-764) above
T1 sequence (P35968 20-764 limits assumed): as the sequence (P35968 20-764) above
T2 sequence (P35968 421-764): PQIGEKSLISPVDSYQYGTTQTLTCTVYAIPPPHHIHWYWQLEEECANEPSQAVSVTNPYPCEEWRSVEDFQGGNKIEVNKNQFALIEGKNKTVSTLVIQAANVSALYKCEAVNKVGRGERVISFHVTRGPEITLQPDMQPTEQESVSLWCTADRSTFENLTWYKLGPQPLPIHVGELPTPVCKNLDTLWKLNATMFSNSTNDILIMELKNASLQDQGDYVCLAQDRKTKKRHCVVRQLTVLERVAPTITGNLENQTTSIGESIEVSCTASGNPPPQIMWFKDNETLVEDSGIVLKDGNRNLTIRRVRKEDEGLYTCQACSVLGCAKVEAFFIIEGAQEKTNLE
Description for Mouse VEGFR2-Fc: Mouse VEGFR2-Fc was used as the capture reagent, and the amount of captured antibody in each well was quantified using an anti-Human Kappa-HRP-conjugated secondary antibody. The HRP-conjugated secondary antibody was added to the wells, and, following an incubation, excess secondary antibody was washed away. TMB was added to the wells, and following incubation, the reaction was stopped, and HRP activity was measured by monitoring the increase in absorbance at 450 nm.

B1: 1121B (antibody, V domains shown)
VH: EVQLVQSGGGLVKPGGSLRLSCAASGFTFSSYSMNWVRQAPGKGLEWVSSISSSSSYIYYADSVKGRFTISRDNAKNSLYLQMNSLRAEDTAVYYCARVTDAFDIWGQGTMVTVSS
VL: EIVMTQSPATLSLSPGERATLSCRASQSVSSYLAWYQQKPGQAPRLLIYDSSNRATGIPARFSGSGSGTDFTLTISSLEPEDFATYYCLQHNTFPPTFGQGTKVEIKR
notes: Anti-VEGFR2 antibody of US 2009/0306348, positive control; The entries are called variable domains but run into the start of the constant domains
Broadly, the EC50 (read off the curve) is the concentration at which the effect is half-maximal. High values mean a less potent agent, low ones a more potent agent. Broadly, the Kd is a measure of binding affinity in units of concentration. Read a low Kd as tighter binding. Broadly, the koff is the first-order rate constant of dissociation. Read a low koff as slow dissociation. For orientation: kon means the second-order rate constant of association. A higher kon goes with faster complex formation. B1: the “EC50 (read off the curve)” value with VEGFR2-Fc is ~0.5 µg/mL; with VEGFR2-AP [2], ~0.6 µg/mL; with VEGFR2-AP [4], ~0.3 µg/mL. Also, the binding result is “no binding (tested: 3 µg/mL)” in [1] and “no binding (tested: 500 µg/mL)” in the assay with Mouse VEGFR2-Fc. This molecule yielded a Kd in the assay with VEGFR2 of 1.28 nM. For the same molecule, the off-rate constant (koff) with VEGFR2 came out at 0.000962 s⁻¹. In the assay with VEGFR2, this molecule yielded a kon of 752000 M⁻¹ s⁻¹. The “IC50 (read off the curve)” value in the assay with VEGFR2-AP [3] was ~0.05 µg/mL.

B2: 1121N (antibody, V domains shown)
VH: B1 VH
VL: DIQMTQSPSSVSASIGDRVTITCRASQGIDNWLGWYQQKPGKAPKLLIYDASNLDTGVPSRFSGSGSGTYFTLTISSLQAEDFAVYFCQQAKAFPPTFGGGTKVDIKG
notes: Anti-VEGFR2 antibody of U.S. Pat. No. 7,498,414, positive control; Entries run into the start of the constant domains
For the molecule B2, in [5], the 50% effective concentration (EC50 (read off the curve)) is ~1 µg/mL. In addition, the binding result is reported as “no binding (tested: 20 µg/mL)” in [6] and “no binding (tested: 500 µg/mL)” with Mouse VEGFR2-Fc.
